For one substance, stoichiometry N results are on record in PMC6270756.

The assay has as its target Nucleoside 2'-deoxyribosyltransferase from Bacillus psychrosaccharolyticus CECT 4074 (Bacillus psychrosaccharolyticus). In words: SEC; pure BpNDT on Sepharose 12 10/300 GL column (GE Healthcare); native mass estimated.

In the case of “Nucleoside 2'-deoxyribosyltransferase from Bacillus psychrosaccharolyticus CECT 4074 (enzyme)”, the stoichiometry N is 6.
